Results reported in patent US20120003245A1 (UNIVERSITY OF GUELPH, published 2012).
Where a chain is given by its changes, count along the chain named.

B1: anti-α-cobratoxin VHH C19 (VHH)
VHH: QVKLEESGGGLAQAGGSLRLSCIGSGDISSFNAMGWYRQVPGKQRELVAFISSGGRSKYTDSVKGRFTISGDNAKNTVYLQMIDLKPEDTAVYYCNAGSVVSYETGNYYEPSNYWGQGTQVTVSS
B2: anti-α-cobratoxin VHH C2 (VHH)
VHH: QVKLEESGGGLVLPGGSLRLSCAASGSISSIYAMGWYRQAPGKQREVVAVITNGNSPNYADSVKGRFTISRDNAKNTVYLQMNSLKPEDTAVYYCNVEGVRYGDSWYDGDYWGQGTQVTVSS
B3: anti-α-cobratoxin VHH C43 (VHH)
VHH: B2 VHH with Q1R, L13Q, P14A, A24V, I28T, S29F, S30D, I31D, M34I
B4: anti-α-cobratoxin VHH C20 (VHH)
VHH: QVKLEESGGGLVQPGGSLRLSCVGSGSISSFNGMGWYRQVPGKQRELVAFISSGGRSKYTDSVKGRFTISGDNAKSTVYLQMINLKPEDTAVYYCNVGSVLSYVTGNYYEPSDYWGQGTQVTVSS

Each binder was assayed against α-cobratoxin (Naja kaouthia, UniProt P01391).
α-cobratoxin, sequence (P01391 whole entry): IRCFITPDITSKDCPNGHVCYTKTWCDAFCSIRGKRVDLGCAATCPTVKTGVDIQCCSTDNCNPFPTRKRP

Binder | Kd | koff | kon
B1 | 25 nM | 0.01 s⁻¹ | 580000 M⁻¹ s⁻¹
B2 | 0.4 nM | 0.00019 s⁻¹ | 520000 M⁻¹ s⁻¹
B3 | 24 nM | 0.0068 s⁻¹ | 290000 M⁻¹ s⁻¹
B4 | 1 nM | 0.0017 s⁻¹ | 1.8e+06 M⁻¹ s⁻¹
